From paper PMC6609482 come the findings set out here.

In data set [1] the target is T1, HMCES SRAP domain (SRAPd) WT (Homo sapiens, UniProt Q96FZ2 2-270).
T1 sequence: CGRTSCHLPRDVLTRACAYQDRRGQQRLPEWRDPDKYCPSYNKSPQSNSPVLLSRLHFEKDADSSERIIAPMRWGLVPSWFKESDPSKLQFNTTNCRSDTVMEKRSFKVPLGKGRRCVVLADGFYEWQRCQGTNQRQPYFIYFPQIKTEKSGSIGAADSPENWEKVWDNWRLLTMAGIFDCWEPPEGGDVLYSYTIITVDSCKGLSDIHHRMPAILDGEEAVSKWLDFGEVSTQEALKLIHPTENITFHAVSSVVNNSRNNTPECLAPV
The data set can be described thus: crystal structure.

Data set [2] addresses T1, HMCES SRAP domain (SRAPd) WT. The data set can be described thus: fluorescence polarization. On the technique in general: Polarisation of emitted light reports the rotation of a fluorescent probe.
The target is the same in data set [3]. The data set can be described thus: crystal structure. This is another data set of the same source.

Read-outs that look alike come from different tables or passages of the source.

B1: DNA_3nt (3' overhang) (dsDNA)
DNA 1: CCAGACGTT
DNA 2: GTCTTG
With B1, in data set [1], the binding result is listed as “binds”.

B2: 3-nt gap DNA (dsDNA)
DNA 1: TCTTCTGGTCCGGATGGTAGTTAAGTGTTGAC
DNA 2: GGACCAGAAGA
DNA 3: GTCAACACTTAACTACCA
For B2, in data set [2], the binding signal was ~7 fold higher affinity than dsDNA of same sequence.

B3: DNA_6nt (3' overhang) (dsDNA)
DNA 1: CCAGACGTTGTT
DNA 2: GTCTTG
B3: the binding result in data set [3] is given as “binds”.
